Experimental findings from IntAct's records for PubMed 36833176 are described below.

The assay deals with csk21_human CSNK2A1 (UniProt P68400).
Sequence of csk21_human CSNK2A1 (P68400 whole entry, looked up): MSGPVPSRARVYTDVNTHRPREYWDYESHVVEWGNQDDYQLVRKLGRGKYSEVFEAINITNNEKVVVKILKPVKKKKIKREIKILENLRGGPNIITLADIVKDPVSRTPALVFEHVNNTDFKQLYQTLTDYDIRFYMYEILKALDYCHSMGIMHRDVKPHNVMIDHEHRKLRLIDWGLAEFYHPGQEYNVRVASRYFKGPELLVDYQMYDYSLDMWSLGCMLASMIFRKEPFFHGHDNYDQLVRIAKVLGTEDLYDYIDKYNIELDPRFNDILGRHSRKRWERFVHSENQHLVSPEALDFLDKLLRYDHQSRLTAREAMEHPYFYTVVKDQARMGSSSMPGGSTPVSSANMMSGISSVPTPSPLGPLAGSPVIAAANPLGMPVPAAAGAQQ

Sequence of Casein kinase II subunit beta (Homo sapiens), P67870 L39R (P67870 whole entry L39R): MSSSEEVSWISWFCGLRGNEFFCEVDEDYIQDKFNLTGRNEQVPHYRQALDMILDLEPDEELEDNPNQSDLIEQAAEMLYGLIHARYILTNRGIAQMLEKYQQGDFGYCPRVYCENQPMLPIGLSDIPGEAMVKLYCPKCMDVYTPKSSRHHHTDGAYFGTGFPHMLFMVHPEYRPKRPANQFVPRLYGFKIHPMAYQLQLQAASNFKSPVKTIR

With “Casein kinase II subunit beta (Homo sapiens), P67870 L39R”, the “effect of a mutation on the interaction” value is “decreasing interaction strength”.
